From PMC10649420, “Expression Patterns and Functional Analysis of Three SmTAT Genes Encoding Tyrosine Aminotransferases in Salvia miltiorrhiza” (International Journal of Molecular Sciences, 2023)

How the values were obtained:
Experiment in all cases: aminotransferase assay, product absorbance, microplate reader
Type in all cases: biochemical, Salvia miltiorrhiza
SmTAT3 = conditions: 100 μM PLP, 30 °C, 30 min, 20 μg/mL enzyme
Text: aminotransferase assay, product absorbance, microplate reader on SmTAT3

[1] = substrate: N[C@@H](Cc1ccc(O)cc1)C(=O)O; conditions: 10 mM alpha-ketoglutarate, 100 μM PLP, 30 °C, 30 min, 1 μg/mL enzyme
Text: (§1) aminotransferase assay, product absorbance, microplate reader on SmTAT1

[2] = substrate: N[C@@H](Cc1ccccc1)C(=O)O; conditions: 10 mM alpha-ketoglutarate, 100 μM PLP, 30 °C, 30 min, 1 μg/mL enzyme
Text: as §1

[3] = substrate: O=C(O)C(=O)Cc1ccc(O)cc1; conditions: 10 mM glutamate, 100 μM PLP, 30 °C, 30 min, 1 μg/mL enzyme, reverse reaction
Text: as §1

[4] = substrate: O=C(O)C(=O)Cc1ccccc1; conditions: 10 mM glutamate, 100 μM PLP, 30 °C, 30 min, 1 μg/mL enzyme, reverse reaction
Text: as §1

[5] = substrate: N[C@@H](Cc1ccc(O)cc1)C(=O)O; conditions: 10 mM alpha-ketoglutarate, 100 μM PLP, 30 °C, 30 min, 20 μg/mL enzyme
Text: (§2) aminotransferase assay, product absorbance, microplate reader on SmTAT2

[6] = substrate: N[C@@H](Cc1ccccc1)C(=O)O; conditions: 10 mM alpha-ketoglutarate, 100 μM PLP, 30 °C, 30 min, 20 μg/mL enzyme
Text: as §2

[7] = substrate: O=C(O)C(=O)Cc1ccc(O)cc1; conditions: 10 mM glutamate, 100 μM PLP, 30 °C, 30 min, 20 μg/mL enzyme, reverse reaction
Text: as §2

[8] = substrate: O=C(O)C(=O)Cc1ccccc1; conditions: 10 mM glutamate, 100 μM PLP, 30 °C, 30 min, 20 μg/mL enzyme, reverse reaction
Text: as §2

[9] = 10 mM glutamate, reverse reaction

Question: For O=C(O)C(=O)Cc1ccccc1 [phenylpyruvate], which Km (SmTAT3; [9]) is on record?
Answer: 3910 ± 2010 µM

Question: For N[C@@H](Cc1ccccc1)C(=O)O [phenylalanine], which Km (SmTAT3; 10 mM alpha-ketoglutarate) is on record?
Answer: 5470 ± 3230 µM

Question: N[C@@H](Cc1ccc(O)cc1)C(=O)O [tyrosine] was tested. Which Km (SmTAT3; 10 mM alpha-ketoglutarate) did it give?
Answer: 2730 ± 1610 µM

Question: With O=C(O)C(=O)Cc1ccc(O)cc1 [4-hydroxyphenylpyruvate] as the molecule, how does the Km (SmTAT3; [9]) read?
Answer: 2220 ± 220 µM

B1: SmTAT1 (Salvia miltiorrhiza) (protein)
chain: MELQNPAQEIDAPTTITIKGILGLLMSSTDPKESGKRVISLGIGDPTAYSCFHASNAAQEGVVEALRSTKFNGYAPTAGLPQTREAIAEYLSRDLPYKLPADSVYVTAGCTQAIEIALSVLARPGANILLPRPCFPIYGLCASFRNIEVRYFDLHPEQGWEVDLDAVADLADHNTVAMVIINPGNPCGNVYSYQHLKKIAETAKRLGIVVIADEVYGHLAFGANPFVPMGIFGSIAPVVTLGSLSKRWLVPGWRLGWLVINDPDGSLMSPKFVERIKKYCDICGGPATFIQAAVPEIVEQTQEVFFRKTINILKQTSDICYQKIEDINGITCPTKPKGAMAFMVKLNLSRMKDISDDIDFCFKLAKEESVIILPGLAVGLKNWIRITFAVDVPALEEAMERLKSFCERHSY
notes: full ORF 1236 bp (about 411 residues) with GST tag (pGEX-4T-1), soluble from E. coli Arctic Express (DE3)
Question: Which Km [1] does the source give for B1 here?
Answer: 310 ± 110 µM

Question: What about the Vmax [1] of the same molecule?
Answer: 6.88 µmol/min/mg

Question: And the kcat [1]?
Answer: 19.8 ± 0.93 s⁻¹

Question: And the kcat/Km [1]?
Answer: 74400 ± 29400 M⁻¹ s⁻¹

Question: What about the Km [2] of the same molecule?
Answer: 3080 ± 990 µM

Question: And the Vmax [2]?
Answer: 4.36 µmol/min/mg

Question: What about the kcat [2] of the same molecule?
Answer: 12.6 ± 1.43 s⁻¹

Question: And the kcat/Km [2]?
Answer: 4680 ± 2020 M⁻¹ s⁻¹

Question: What about the Km [3] of the same molecule?
Answer: 2770 ± 520 µM

Question: What about the Vmax [3] of the same molecule?
Answer: 3.19 µmol/min/mg

Question: What about the kcat [3] of the same molecule?
Answer: 9.21 ± 0.78 s⁻¹

Question: What about the kcat/Km [3] of the same molecule?
Answer: 3500 ± 940 M⁻¹ s⁻¹

Question: And the Km [4]?
Answer: 710 ± 210 µM

Question: What about the Vmax [4] of the same molecule?
Answer: 3.63 µmol/min/mg

Question: What about the kcat [4] of the same molecule?
Answer: 10.4 ± 0.39 s⁻¹

Question: What about the kcat/Km [4] of the same molecule?
Answer: 16300 ± 4620 M⁻¹ s⁻¹

B2: SmTAT2 (Salvia miltiorrhiza) (protein)
chain: MPNSTERERERELSMENGGSAAARWRFEGNERLILAGGVTVRGVLNTVIGNLDGNDTRPVIPLGHGDPSAFPSFRTSPFAEDAVCSAVRSTKFNGYSSTVGIPAARSAVAEYLSKDLPYKLSPDDVFLTIGCTQALEAVVTVLARPGANLLLPRPGFPYYEARAGFCSLEFRHFDLLPEQDWEVDLASVEALADENTVAMVIINPGNPCGNVFKYEHLKKVAETARKLGILVISDEVYDHLTFGSNPFVPMGVFASIAPILTLGSISKRWIVPGWRLGWLVTNDPDGILTKQGIVDSIKGFLNISADPATFMQGAVPQILENTPSDFFQKIVSTLRETADICYERSKEIPCITCPSRPEGSMFAMVKLNLSLLEGIEDDMDFCCKLAKEESVILLPGFAVGLKNWLRVTFAIEPSSLDDGFLRIKAFHQRHAKKQ
Question: Which Km [5] does the source give for B2 here?
Answer: 3470 ± 1690 µM

Question: What about the Vmax [5] of the same molecule?
Answer: 0.0486 µmol/min/mg

Question: And the kcat [5]?
Answer: 0.15 ± 0.03 s⁻¹

Question: And the kcat/Km [5]?
Answer: 60 ± 40 M⁻¹ s⁻¹

Question: And the Km [6]?
Answer: 6930 ± 3390 µM

Question: And the Vmax [6]?
Answer: 0.109 µmol/min/mg

Question: And the Km [7]?
Answer: 480 ± 160 µM

Question: And the Vmax [7]?
Answer: 0.448 µmol/min/mg

Question: And the kcat [7]?
Answer: 1.35 ± 0.08 s⁻¹

Question: And the kcat/Km [7]?
Answer: 3230 ± 1240 M⁻¹ s⁻¹

Question: And the Km [8]?
Answer: 3940 ± 990 µM

Question: And the Vmax [8]?
Answer: 0.057 µmol/min/mg

Question: What about the kcat [8] of the same molecule?
Answer: 0.17 ± 0.02 s⁻¹

Question: What about the kcat/Km [8] of the same molecule?
Answer: 50 ± 20 M⁻¹ s⁻¹
